Data published in PMC12808100, “The non-catalytic DNA polymerase ε subunit is an NPF motif recognition protein” (Nature Communications, 2025).

Assays:
POLE2 S522A = assay: Proximity labeling MS, POLE2 S522A; conditions: bait POLE2_S522A
POLE2 Y311F = assay: Proximity labeling MS, POLE2 Y311F; conditions: bait POLE2_Y311F
POLE2 WT = assay: Proximity labeling MS, MAC3-tagged POLE2 WT in Flp-In T-REx 293 cells; format: cell-based, human; conditions: bait POLE2_WT
POLE2 E520A = assay: Proximity labeling MS, POLE2 E520A; conditions: bait POLE2_E520A
[1] = molecular target: His6-avi-MBP-tagged POLE2; assay: Single-point nHU-MS with recombinant His6-avi-MBP-POLE2 bait, Jurkat extract; format: binding, human; conditions: significant apparent affinity of endogenous prey protein for POLE2 bait; single-point nHU-MS; Figure S11
From the text: So far, our study only focused on a few hand-picked NPF motifs and studied them as short synthetic peptides. However, many other proteins may be present in the proteome that could bind to POLE2 and their putative NPF motifs are embedded in their natural structures that can greatly affect their binding properties. To investigate interactions between POLE2 and intact, full length proteins proteome-wide, we used nHU-MS experiments with recombinant His6-avi-MBP-tagged POLE2 as bait and purified His6-avi-MBP as a control. Even though we are aware that this recombinant POLE2 may bind to NPF motifs with a somewhat altered affinity, we assumed that this would affect all NPF motif-mediated interactions equally, allowing an unbiased affinity ranking of all identified partners. Single point nHU measurements were performed at 26 μM POLE2 concentration and the recovered supernatant was measured by label free proteomic MS measurements (Fig. 3A, Supplementary Figs. 8A, 9, Supplementary Data 1).
Single-point nHU experiments with protein baits were carried out nearly identically with two key modifications. First, the resin saturation step was carried out by mixing 50 μl streptavidin resin with 0.5−1 ml 50 μM biotinylated protein solution and the mixture was incubated for 1.5 h at 4 °C with constant agitation. Second, instead of using estimated bait concentrations, we measured it experimentally. An extra aliquot of resin stock was prepared alongside the nHU samples that were identically processed that were used to eluate the immobilized proteins under harsh conditions, in order to experimentally quantify the Cbait by using densitometry of Coomassie stained SDS-PAGE that included a protein calibration series. For this, 50 μl bait-saturated resin aliquots were mixed with 200 μl 4x Laemmli Sample Buffer (120 mM Tris-HCl pH 7, 8% SDS, 100 mM DTT, 32% glycerol, 0.004% bromphenol blue, 1% β-mercaptoethanol), instead of cell extract. After 15 min incubation at 95 °C, these samples were analyzed by SDS-PAGE using protein calibration standard, made from recombinant MBP. Densitometry was carried out after Coomassie staining on raw Tif images by using Fiji ImageJ 1.53c and experimental bait concentration were determined by adjusting for molecular weight differences between MBP and MBP-POLE2 constructs.
Samples were digested overnight at 37 °C.

B1: ABT1 (protein, UniProt Q9ULW3 1-272, looked up)
Activator of basal …: MEAEESEKAATEQEPLEGTEQTLDAEEEQEESEEAACGSKKRVVPGIVYLGHIPPRFRPLHVRNLLSAYGEVGRVFFQAEDRFVRRKKKAAAAAGGKKRSYTKDYTEGWVEFRDKRIAKRVAASLHNTPMGARRRSPFRYDLWNLKYLHRFTWSHLSEHLAFERQVRRQRLRAEVAQAKRETDFYLQSVERGQRFLAADGDPARPDGSWTFAQRPTEQELRARKAARPGGRERARLATAQDKARSNKGLLARIFGAPPPSESMEGPSLVRDS
AvgSpec (POLE2 S522A; mean of 3 replicates): 14.33 | Spec (POLE2 S522A; replicate 1): 12 | Spec (POLE2 S522A; replicate 2): 14 | Spec (POLE2 S522A; replicate 3): 17 | SpecSum (POLE2 S522A; sum of 3 replicates): 43 | FoldChange (POLE2 S522A; versus control counts): 11.82 | AvgSpec (POLE2 Y311F; mean of 3 replicates): 9.67 | Spec (POLE2 Y311F; replicate 1): 11 | Spec (POLE2 Y311F; replicate 2): 8 | Spec (POLE2 Y311F; replicate 3): 10 | SpecSum (POLE2 Y311F; sum of 3 replicates): 29 | FoldChange (POLE2 Y311F; versus control counts): 7.97 | AvgSpec (POLE2 WT; mean of 6 replicates): 7.33 | Spec (POLE2 WT; replicate 1): 9 | Spec (POLE2 WT; replicate 2): 11 | Spec (POLE2 WT; replicate 3): 13 | Spec (POLE2 WT; replicate 4): 4 | Spec (POLE2 WT; replicate 5): 2 | Spec (POLE2 WT; replicate 6): 5 | SpecSum (POLE2 WT; sum of 6 replicates): 44 | FoldChange (POLE2 WT; versus control counts): 6.05 | AvgSpec (POLE2 E520A; mean of 3 replicates): 9.33 | Spec (POLE2 E520A; replicate 1): 14 | Spec (POLE2 E520A; replicate 2): 7 | Spec (POLE2 E520A; replicate 3): 7 | SpecSum (POLE2 E520A; sum of 3 replicates): 28 | FoldChange (POLE2 E520A; versus control counts): 7.7

B2: ASPA (protein, UniProt P45381 1-313, looked up)
Aspartoacylase: MTSCHIAEEHIQKVAIFGGTHGNELTGVFLVKHWLENGAEIQRTGLEVKPFITNPRAVKKCTRYIDCDLNRIFDLENLGKKMSEDLPYEVRRAQEINHLFGPKDSEDSYDIIFDLHNTTSNMGCTLILEDSRNNFLIQMFHYIKTSLAPLPCYVYLIEHPSLKYATTRSIAKYPVGIEVGPQPQGVLRADILDQMRKMIKHALDFIHHFNEGKEFPPCAIEVYKIIEKVDYPRDENGEIAAIIHPNLQDQDWKPLHPGDPMFLTLDGKTIPLGGDCTVYPVFVNEAAYYEKKEAFAKTTKLTLNAKSIRCCLH
pKapp_sign [1]: 5.902
